Reference: publication PMC2749713

Assays:
[1] = biological target: AB’C PP2A holoenzyme with GST-tagged A subunit (GST-A, B’ and C subunits) (human) (UniProt P30153); test: pull-down
[2] = biological target: Sgo1(51-96) peptide (human) (UniProt Q5FBB7); test: crystal structure

Sequence of AB’C PP2A holoenzyme with GST-tagged A subunit (GST-A, B’ and C subunits) (human) (P30153 2-589, chain 1 of 3): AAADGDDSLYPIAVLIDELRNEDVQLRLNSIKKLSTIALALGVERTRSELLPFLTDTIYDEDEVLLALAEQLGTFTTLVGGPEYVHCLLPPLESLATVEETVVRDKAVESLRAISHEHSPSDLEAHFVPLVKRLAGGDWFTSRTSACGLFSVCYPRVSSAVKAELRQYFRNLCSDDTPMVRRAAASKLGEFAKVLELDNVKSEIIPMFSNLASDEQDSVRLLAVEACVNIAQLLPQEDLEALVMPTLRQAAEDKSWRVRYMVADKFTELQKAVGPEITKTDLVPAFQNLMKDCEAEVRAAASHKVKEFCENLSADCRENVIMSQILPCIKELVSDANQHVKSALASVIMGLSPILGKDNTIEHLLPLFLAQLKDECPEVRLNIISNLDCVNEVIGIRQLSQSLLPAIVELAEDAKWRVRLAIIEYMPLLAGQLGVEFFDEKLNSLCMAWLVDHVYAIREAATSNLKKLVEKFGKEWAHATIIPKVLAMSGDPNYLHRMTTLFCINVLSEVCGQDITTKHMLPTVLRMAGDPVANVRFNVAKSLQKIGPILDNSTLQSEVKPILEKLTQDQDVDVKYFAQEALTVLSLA
Sequence of AB’C PP2A holoenzyme with GST-tagged A subunit (GST-A, B’ and C subunits) (human) (Q13362 whole entry, chain 2 of 3, further chain): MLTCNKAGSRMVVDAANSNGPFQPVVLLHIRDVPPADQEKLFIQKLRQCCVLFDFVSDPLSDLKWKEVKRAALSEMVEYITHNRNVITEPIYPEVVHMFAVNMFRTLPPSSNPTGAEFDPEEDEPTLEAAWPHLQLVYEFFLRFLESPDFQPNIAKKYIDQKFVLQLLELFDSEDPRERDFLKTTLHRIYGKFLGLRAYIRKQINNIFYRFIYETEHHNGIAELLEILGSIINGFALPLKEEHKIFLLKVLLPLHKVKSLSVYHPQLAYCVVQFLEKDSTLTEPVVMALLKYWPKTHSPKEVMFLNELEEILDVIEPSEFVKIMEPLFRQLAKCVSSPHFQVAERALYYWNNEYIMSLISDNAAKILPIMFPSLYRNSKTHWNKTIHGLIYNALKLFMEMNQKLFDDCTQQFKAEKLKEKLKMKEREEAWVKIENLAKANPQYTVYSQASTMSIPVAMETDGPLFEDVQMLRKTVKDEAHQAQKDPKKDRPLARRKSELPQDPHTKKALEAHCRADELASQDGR
Sequence of AB’C PP2A holoenzyme with GST-tagged A subunit (GST-A, B’ and C subunits) (human) (P67775 whole entry, chain 3 of 3, further chain): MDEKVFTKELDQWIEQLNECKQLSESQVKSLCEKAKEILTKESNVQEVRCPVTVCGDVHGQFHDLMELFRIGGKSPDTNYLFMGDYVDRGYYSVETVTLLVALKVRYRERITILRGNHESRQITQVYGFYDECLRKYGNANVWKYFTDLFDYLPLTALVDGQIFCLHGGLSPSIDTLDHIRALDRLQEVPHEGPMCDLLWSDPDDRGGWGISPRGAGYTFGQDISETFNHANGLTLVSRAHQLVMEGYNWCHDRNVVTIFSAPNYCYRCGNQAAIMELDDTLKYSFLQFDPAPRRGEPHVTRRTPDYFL

| Substance | stoichiometry N (Sgo2 per PP2A) [1] | stoichiometry N [2] |
| --- | --- | --- |
| MBP-Sgo2(45-117) (from UniProt Q7TSY8 45-117) (domain or fragment) | 2 | – |
| Sgo1(51-96) peptide (from UniProt Q5FBB7 51-96) | – | 2 |
